Test results: patent US20200002439A1

Legend:
[1] = biological target: recombinant human Ang2 (human) (UniProt O15123); assay: blocking ELISA: Ang2 coated on the plate, binding of recombinant human Tie2 is blocked
[2] = biological target: human TGFβ1 (human) (UniProt P01137)
[3] = biological target: His tagged human Angiopoietin-2 (human) (UniProt O15123); assay: bio-layer interferometry, rhAng2-His
His tagged human Angiopoietin-2 (human), sequence (O15123 19-496 limits assumed): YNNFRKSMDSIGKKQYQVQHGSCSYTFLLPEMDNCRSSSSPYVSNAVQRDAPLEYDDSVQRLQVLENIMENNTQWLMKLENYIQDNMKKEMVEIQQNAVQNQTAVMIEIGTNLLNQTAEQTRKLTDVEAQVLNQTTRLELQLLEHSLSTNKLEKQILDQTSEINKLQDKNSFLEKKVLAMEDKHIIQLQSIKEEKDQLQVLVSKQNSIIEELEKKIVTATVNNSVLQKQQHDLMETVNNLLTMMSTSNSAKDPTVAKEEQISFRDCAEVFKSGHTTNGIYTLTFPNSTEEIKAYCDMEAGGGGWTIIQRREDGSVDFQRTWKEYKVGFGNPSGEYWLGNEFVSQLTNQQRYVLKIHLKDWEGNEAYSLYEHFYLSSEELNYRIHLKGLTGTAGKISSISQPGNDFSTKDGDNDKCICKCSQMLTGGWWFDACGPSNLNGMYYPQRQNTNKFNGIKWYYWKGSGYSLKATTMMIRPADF

recombinant human Ang2 (human), sequence (O15123 19-496 limits assumed): as above
human TGFβ1 (human), sequence (P01137 279-390 limits assumed): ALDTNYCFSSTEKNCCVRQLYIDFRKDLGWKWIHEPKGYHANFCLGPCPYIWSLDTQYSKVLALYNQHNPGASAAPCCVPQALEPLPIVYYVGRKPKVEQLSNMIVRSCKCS

## bevacizumab-trebananib
[1]
  IC50: 0.57 nM

## TGFβ1 RII-Fc (from UniProt P37173 24-159) (Fc fusion)
[2]
  IC50; luciferase signal of TGFβ/SMAD SBE Reporter-HEK293 cells stimulated with human TGFβ1: 2.02 nM

## trebananib (Fc fusion)
[3]
  Kd: 1.23 nM
  koff: 0.000146 s⁻¹
  kon: 119000 M⁻¹ s⁻¹
[1]
  IC50: 0.5 nM
